The values that follow come from the supplement of paper PMC10567573.

To fix the notation:
B1: ZNF449 (parent)
chain: QLTGHQRIHSGEEPHKCPECGKRF
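Further: lentivirally expressed fusions sorted by FACS into six bins by GFP to DsRed ratio, PSI derived from sequencing read proportions per bin multiplied by bin number.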

In this data set the parent is B1. As to the kind of experiment: protein stability index of a GFP-peptide fusion (GPS, HEK-293T) (PSI 1-6); higher = more stable. Conditions: c terminus: a fixed tail appended.
Regarding QLTGHQTIHSGEEPHKCPECGKRF [R7T], the protein stability index was 4.74.
For QLTGHQWIHSGEEPHKCPECGKRF [R7W], the protein stability index came to 3.36.
QLTGHQSIHSGEEPHKCPECGKRF [R7S]: the protein stability index turned out to be 4.83.
With QLTGHQDIHSGEEPHKCPECGKRF [R7D] the figure was 4.85.
With QLTGHQIIHSGEEPHKCPECGKRF [R7I], the protein stability index turned out to be 4.58.
The result for QLTGHQFIHSGEEPHKCPECGKRF [R7F] reads 3.33.
With QLTGHQKIHSGEEPHKCPECGKRF [R7K] the figure was 4.31; with QLTGHQGIHSGEEPHKCPECGKRF [R7G], 4.56; with QLTGHQLIHSGEEPHKCPECGKRF [R7L], 4.7.
For the variant QLTGHQHIHSGEEPHKCPECGKRF [R7H], the protein stability index was found to be 4.78.
With QLTGHQMIHSGEEPHKCPECGKRF [R7M] the figure was 4.43; with QLTGHQPIHSGEEPHKCPECGKRF [R7P], 4.44.
The result for QLTGHQAIHSGEEPHKCPECGKRF [R7A] reads 4.69; that for QLTGHQQIHSGEEPHKCPECGKRF [R7Q], 4.22.
The result for QLTGHQVIHSGEEPHKCPECGKRF [R7V] reads 3.78.
For the variant QLTGHQEIHSGEEPHKCPECGKRF [R7E], the protein stability index amounted to 4.08.
The result for QLTGHQNIHSGEEPHKCPECGKRF [R7N] reads 3.52; that for QLTGHQCIHSGEEPHKCPECGKRF [R7C], 5.01.
The result for QLTGHQYIHSGEEPHKCPECGKRF [R7Y] reads 4.14; that for QLTGHQRIHDGEEPHKCPECGKRF [S10D], 4.33; that for QLTGHQRIHYGEEPHKCPECGKRF [S10Y], 3.45.
With QLTGHQRIHQGEEPHKCPECGKRF [S10Q] the figure was 3.91; with QLTGHQRIHAGEEPHKCPECGKRF [S10A], 4.01; with QLTGHQRIHPGEEPHKCPECGKRF [S10P], 4.47.
QLTGHQRIHNGEEPHKCPECGKRF [S10N]: the protein stability index came out at 3.85.
With QLTGHQRIHEGEEPHKCPECGKRF [S10E] the figure was 4.48; with QLTGHQRIHFGEEPHKCPECGKRF [S10F], 4.12; with QLTGHQRIHHGEEPHKCPECGKRF [S10H], 4.24.
For QLTGHQRIHIGEEPHKCPECGKRF [S10I], the protein stability index worked out at 3.6.
QLTGHQRIHCGEEPHKCPECGKRF [S10C]: the protein stability index was found to be 4.11.
For the variant QLTGHQRIHTGEEPHKCPECGKRF [S10T], the protein stability index was found to be 4.35.
As for QLTGHQRIHKGEEPHKCPECGKRF [S10K], the protein stability index was found to be 3.87.
The result for QLTGHQRIHWGEEPHKCPECGKRF [S10W] reads 4.31; that for QLTGHQRIHLGEEPHKCPECGKRF [S10L], 4.12; that for QLTGHQRIHVGEEPHKCPECGKRF [S10V], 4.09.
With QLTGHQRIHMGEEPHKCPECGKRF [S10M] the figure was 3.36; with QLTGHQRIHRGEEPHKCPECGKRF [S10R], 3.55; with FLTGHQRIHSGEEPHKCPECGKRF [Q1F], 2.09.
With ALTGHQRIHSGEEPHKCPECGKRF [Q1A] the figure was 4.5; with DLTGHQRIHSGEEPHKCPECGKRF [Q1D], 3.45.
With ILTGHQRIHSGEEPHKCPECGKRF [Q1I], the protein stability index came out at 3.3.
With NLTGHQRIHSGEEPHKCPECGKRF [Q1N] the figure was 4.09; with TLTGHQRIHSGEEPHKCPECGKRF [Q1T], 4.31; with MLTGHQRIHSGEEPHKCPECGKRF [Q1M], 2.5.
As for RLTGHQRIHSGEEPHKCPECGKRF [Q1R], the protein stability index was 3.87.
With VLTGHQRIHSGEEPHKCPECGKRF [Q1V] the figure was 3.76; with PLTGHQRIHSGEEPHKCPECGKRF [Q1P], 3.96; with YLTGHQRIHSGEEPHKCPECGKRF [Q1Y], 2.71.
The result for LLTGHQRIHSGEEPHKCPECGKRF [Q1L] reads 3.84; that for SLTGHQRIHSGEEPHKCPECGKRF [Q1S], 4.72; that for KLTGHQRIHSGEEPHKCPECGKRF [Q1K], 3.61.
With CLTGHQRIHSGEEPHKCPECGKRF [Q1C] the figure was 4.74; with GLTGHQRIHSGEEPHKCPECGKRF [Q1G], 4.83.
As to ELTGHQRIHSGEEPHKCPECGKRF [Q1E], the protein stability index was 3.42.
With WLTGHQRIHSGEEPHKCPECGKRF [Q1W] the figure was 2.03; with HLTGHQRIHSGEEPHKCPECGKRF [Q1H], 3.69.
With QNTGHQRIHSGEEPHKCPECGKRF [L2N] the figure was 4.59; with QPTGHQRIHSGEEPHKCPECGKRF [L2P], 4.89; with QWTGHQRIHSGEEPHKCPECGKRF [L2W], 4.53.
With QMTGHQRIHSGEEPHKCPECGKRF [L2M] the figure was 4.86.
On to QSTGHQRIHSGEEPHKCPECGKRF [L2S], for which the protein stability index was determined as 4.6.
In the case of QFTGHQRIHSGEEPHKCPECGKRF [L2F], the protein stability index was found to be 3.89.
For QRTGHQRIHSGEEPHKCPECGKRF [L2R], the protein stability index stood at 4.33.
As to QYTGHQRIHSGEEPHKCPECGKRF [L2Y], the protein stability index is 3.66.
With QVTGHQRIHSGEEPHKCPECGKRF [L2V] the figure was 4.65.
The result for QITGHQRIHSGEEPHKCPECGKRF [L2I] reads 3.1; that for QATGHQRIHSGEEPHKCPECGKRF [L2A], 4.57.
With QQTGHQRIHSGEEPHKCPECGKRF [L2Q] the figure was 5.16; with QGTGHQRIHSGEEPHKCPECGKRF [L2G], 4.77.
As to QKTGHQRIHSGEEPHKCPECGKRF [L2K], the protein stability index was found to be 4.8.
The result for QETGHQRIHSGEEPHKCPECGKRF [L2E] reads 4.71; that for QCTGHQRIHSGEEPHKCPECGKRF [L2C], 5.34.
With QDTGHQRIHSGEEPHKCPECGKRF [L2D] the figure was 5.01; with QTTGHQRIHSGEEPHKCPECGKRF [L2T], 4.64; with QHTGHQRIHSGEEPHKCPECGKRF [L2H], 4.58.
As for QLTGHARIHSGEEPHKCPECGKRF [Q6A], the protein stability index worked out at 4.67.
As to QLTGHPRIHSGEEPHKCPECGKRF [Q6P], the protein stability index amounted to 4.04.
The result for QLTGHYRIHSGEEPHKCPECGKRF [Q6Y] reads 3.97; that for QLTGHMRIHSGEEPHKCPECGKRF [Q6M], 3.68.
With QLTGHRRIHSGEEPHKCPECGKRF [Q6R] the figure was 2.88; with QLTGHWRIHSGEEPHKCPECGKRF [Q6W], 3.05.
QLTGHCRIHSGEEPHKCPECGKRF [Q6C]: the protein stability index stood at 4.23.
The result for QLTGHNRIHSGEEPHKCPECGKRF [Q6N] reads 3.77; that for QLTGHGRIHSGEEPHKCPECGKRF [Q6G], 3.44; that for QLTGHTRIHSGEEPHKCPECGKRF [Q6T], 3.84.
Turning to QLTGHERIHSGEEPHKCPECGKRF [Q6E], the protein stability index amounted to 3.77.
The result for QLTGHLRIHSGEEPHKCPECGKRF [Q6L] reads 3.83; that for QLTGHVRIHSGEEPHKCPECGKRF [Q6V], 3.27; that for QLTGHFRIHSGEEPHKCPECGKRF [Q6F], 2.85.
For the variant QLTGHDRIHSGEEPHKCPECGKRF [Q6D], the protein stability index came to 4.77.
The result for QLTGHKRIHSGEEPHKCPECGKRF [Q6K] reads 3.43; that for QLTGHHRIHSGEEPHKCPECGKRF [Q6H], 4.16; that for QLTGHSRIHSGEEPHKCPECGKRF [Q6S], 4.24.
The result for QLTGHIRIHSGEEPHKCPECGKRF [Q6I] reads 3.
